Test results published in patent publication US20200292534A1 (published 2020).
Read-outs that look alike come from different tables or passages of the source.

T1: NLpoly11S
T1 chain: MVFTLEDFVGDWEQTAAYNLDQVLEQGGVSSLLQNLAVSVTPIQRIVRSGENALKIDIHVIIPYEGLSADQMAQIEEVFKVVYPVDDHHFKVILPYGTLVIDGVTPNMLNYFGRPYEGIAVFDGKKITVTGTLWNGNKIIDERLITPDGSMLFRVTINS


How the values were obtained:
Experiment in all cases: luminescence complementation titration, one-site specific binding
NLpoly11S [1] = target: T1, NLpoly11S
NLpoly11S [2] = target: T1, NLpoly11S
NLpoly11S [3] = target: T1, NLpoly11S

| Binder | Kd (NLpoly11S [1]) [nM] | Kd (NLpoly11S [2]) [nM] | Kd (NLpoly11S [3]) [nM] |
| --- | --- | --- | --- |
| NVTGYRLFKKISN (other) [HaloTag-NLPep79] | 33.9 |  |  |
| MNVSGWRLFKKISN (other) [NLpep78-HaloTag] |  | 30.2 |  |
| NVSGWRLFKKISN (other) [HaloTag-NLPep78] |  | 7.21 |  |
| VTGYRLFEEIL [NLpep114] |  |  | 199000 |
| GVTGWRLCERILA [NLpep1] |  |  | 2460 |
| MNVTGYRLFKKISN (other) [NLpep79-HaloTag] | 22.9 |  |  |
